Consider 55 molecules from article PMC12416549 (2024).

Where a chain is given by its changes, count along the chain named. In names and notes the source's numbering stands.

Sequences and labels used below:
T1: TNFR1 (Homo sapiens, UniProt P19438)
T1 chain: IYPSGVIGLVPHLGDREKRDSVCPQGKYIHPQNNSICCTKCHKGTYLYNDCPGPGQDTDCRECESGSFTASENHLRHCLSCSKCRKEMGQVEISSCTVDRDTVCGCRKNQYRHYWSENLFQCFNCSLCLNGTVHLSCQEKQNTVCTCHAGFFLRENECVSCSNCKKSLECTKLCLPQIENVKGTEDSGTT

B1: S1Y (designed binder)
chain: YMEEEVEKAAKEYEKKKKEAIEKHLEKLKAKDKEAAERFLKELEEAAKEYAKDEAKTMSEEEAKRRAKKYKEKVLLSELSEEEQKEIKEAEEKLVRTILKYVEEAAK
B2: R65F (designed binder)
chain: B1 chain with Y1S, R65F
B3: E34R (designed binder)
chain: B1 chain with Y1S, E34R
B4: A35D (designed binder)
chain: B1 chain with Y1S, A35D
B5: A46N (designed binder)
chain: B1 chain with Y1S, A46N
B6: A9Y (designed binder)
chain: B1 chain with Y1S, A9Y
B7: E45A (designed binder)
chain: B1 chain with Y1S, E45A
B8: E5D (designed binder)
chain: B1 chain with Y1S, E5D
B9: E42L (designed binder)
chain: B1 chain with Y1S, E42L
B10: E89R (designed binder)
chain: B1 chain with Y1S, E89R
B11: K93Y (designed binder)
chain: B1 chain with Y1S, K93Y
B12: L94R (designed binder)
chain: B1 chain with Y1S, L94R
B13: K64H (designed binder)
chain: B1 chain with Y1S, K64H
B14: E49V (designed binder)
chain: B1 chain with Y1S, E49V
B15: K33C (designed binder)
chain: B1 chain with Y1S, K33C
B16: L25S (designed binder)
chain: B1 chain with Y1S, L25S
B17: Q84V (designed binder)
chain: B1 chain with Y1S, Q84V
B18: K64R (designed binder)
chain: B1 chain with Y1S, K64R
B19: S59D (designed binder)
chain: B1 chain with Y1S, S59D
B20: K107C (designed binder)
chain: B1 chain with Y1S, K107C
B21: A63C (designed binder)
chain: B1 chain with Y1S, A63C
B22: Y50M (designed binder)
chain: B1 chain with Y1S, Y50M
B23: M58Y (designed binder)
chain: B1 chain with Y1S, M58Y
B24: R96I (designed binder)
chain: B1 chain with Y1S, R96I
B25: S1K (designed binder)
chain: B1 chain with Y1K
B26: K31Q (designed binder)
chain: B1 chain with Y1S, K31Q
B27: K71W (designed binder)
chain: B1 chain with Y1S, K71W
B28: E61V (designed binder)
chain: B1 chain with Y1S, E61V
B29: A30S (designed binder)
chain: B1 chain with Y1S, A30S
B30: E83I (designed binder)
chain: B1 chain with Y1S, E83I
B31: A10S (designed binder)
chain: B1 chain with Y1S, A10S
B32: F39M (designed binder)
chain: B1 chain with Y1S, F39M
B33: E12M (designed binder)
chain: B1 chain with Y1S, E12M
B34: K71M (designed binder)
chain: B1 chain with Y1S, K71M
B35: K64Q (designed binder)
chain: B1 chain with Y1S, K64Q
B36: K18S (designed binder)
chain: B1 chain with Y1S, K18S
B37: K64I (designed binder)
chain: B1 chain with Y1S, K64I
B38: A20W (designed binder)
chain: B1 chain with Y1S, A20W
B39: V95I (designed binder)
chain: B1 chain with Y1S, V95I
B40: D53P (designed binder)
chain: B1 chain with Y1S, D53P
B41: K88D (designed binder)
chain: B1 chain with Y1S, K88D
B42: A30N (designed binder)
chain: B1 chain with Y1S, A30N
B43: E34P (designed binder)
chain: B1 chain with Y1S, E34P
B44: S59V (designed binder)
chain: B1 chain with Y1S, S59V
B45: E92T (designed binder)
chain: B1 chain with Y1S, E92T
B46: I21N (designed binder)
chain: B1 chain with Y1S, I21N
B47: E78Q (designed binder)
chain: B1 chain with Y1S, E78Q
B48: K48I (designed binder)
chain: B1 chain with Y1S, K48I
B49: A63K (designed binder)
chain: B1 chain with Y1S, A63K
B50: L79W (designed binder)
chain: B1 chain with Y1S, L79W
B51: K68Y (designed binder)
chain: B1 chain with Y1S, K68Y
B52: E83F (designed binder)
chain: B1 chain with Y1S, E83F
B53: K107A (designed binder)
chain: B1 chain with Y1S, K107A
B54: K31Y (designed binder)
chain: B1 chain with Y1S, K31Y
B55: K48Y (designed binder)
chain: B1 chain with Y1S, K48Y

This test addresses T1, TNFR1. Briefly: yeast display SC50.
For the molecule B1, the “apparent Kd (screen)” value was found to be 3 nM.
Take B2: the “apparent Kd (screen)” value is 7.07 nM.
On to B3, for which the “apparent Kd (screen)” value amounted to 0.446 nM.
Turning to B4, the “apparent Kd (screen)” value is 2.25 nM.
For the molecule B5, the “apparent Kd (screen)” value worked out at 1.69 nM.
Under B6 stands 0.718 nM; under B7, 2.05 nM; under B8, 0.653 nM.
Turning to B9, the “apparent Kd (screen)” value stood at 7.07 nM.
As to B10, the “apparent Kd (screen)” value is 2.73 nM.
Under B11 stands 2.25 nM.
Regarding B12, the “apparent Kd (screen)” value came out at 4.83 nM.
On to B13, for which the “apparent Kd (screen)” value came out at 0.593 nM.
Regarding B14, the “apparent Kd (screen)” value was 10.4 nM.
On to B15, for which the “apparent Kd (screen)” value was 0.653 nM.
Take B16: the “apparent Kd (screen)” value is 1.05 nM.
B17: the “apparent Kd (screen)” value was found to be 3 nM.
Consider B18, for which the “apparent Kd (screen)” value was determined as 0.869 nM.
For the molecule B19, the “apparent Kd (screen)” value was determined as 2.25 nM.
For the molecule B20, the “apparent Kd (screen)” value stood at 2.73 nM.
Take B21: the “apparent Kd (screen)” value amounted to 26.9 nM.
On to B22, for which the “apparent Kd (screen)” value turned out to be 0.446 nM.
Take B23: the “apparent Kd (screen)” value stood at 24.4 nM.
In the case of B24, the “apparent Kd (screen)” value is 0.718 nM.
As to B25, the “apparent Kd (screen)” value came to 0.446 nM.
For the molecule B26, the “apparent Kd (screen)” value came out at 1.16 nM.
B27: the “apparent Kd (screen)” value was found to be 4.39 nM.
For the molecule B28, the “apparent Kd (screen)” value was determined as 1.16 nM.
Under B29 stands 0.718 nM.
As for B30, the “apparent Kd (screen)” value came to 0.446 nM.
As to B31, the “apparent Kd (screen)” value was found to be 0.446 nM.
Take B32: the “apparent Kd (screen)” value is 3 nM.
For the molecule B33, the “apparent Kd (screen)” value turned out to be 0.539 nM.
In the case of B34, the “apparent Kd (screen)” value was determined as 3 nM.
Regarding B35, the “apparent Kd (screen)” value amounted to 0.446 nM.
Take B36: the “apparent Kd (screen)” value is 0.446 nM.
Turning to B37, the “apparent Kd (screen)” value worked out at 1.05 nM.
Consider B38, for which the “apparent Kd (screen)” value amounted to 2.25 nM.
On to B39, for which the “apparent Kd (screen)” value was 1.69 nM.
Take B40: the “apparent Kd (screen)” value turned out to be 0.869 nM.
With B41, the “apparent Kd (screen)” value is 0.446 nM.
B42: the “apparent Kd (screen)” value was determined as 0.79 nM.
Under B43 stands 0.653 nM; under B44, 1.54 nM; under B45, 3.3 nM.
As to B46, the “apparent Kd (screen)” value stood at 1.69 nM.
Under B47 stands 0.718 nM; under B48, 0.49 nM; under B49, 8.56 nM.
Turning to B50, the “apparent Kd (screen)” value was found to be 6.43 nM.
For B51, the “apparent Kd (screen)” value was found to be 3.99 nM.
On to B52, for which the “apparent Kd (screen)” value amounted to 2.05 nM.
B53: the “apparent Kd (screen)” value came out at 1.54 nM.
For the molecule B54, the “apparent Kd (screen)” value was 0.49 nM.
In the case of B55, the “apparent Kd (screen)” value is 0.653 nM.
